B1: pOsIRO2 probe (dsDNA)
DNA 1: CCTCCCTAGCTTGGCAGAATAGTTAATGTTAATCACCTGATTAAA
DNA 2: TTTAATCAGGTGATTAACATTAACTATTCTGCCAAGCTAGGGAGG
B2: pOsIRO2 unlabeled (Cold-Probe) (dsDNA)
DNA 1: CCTCCCTAGCTTGGCAGAATAGTTAATGTTAATCACCTGATTAAA
DNA 2: TTTAATCAGGTGATTAACATTAACTATTCTGCCAAGCTAGGGAGG
B3: mpOsIRO2 (Cold-Probe-m) (dsDNA)
DNA 1: CCTCCCTAGCTTGGCAGAATAGTTAATGTTAATGTCCTGATTAAA
DNA 2: TTTAATCAGGACATTAACATTAACTATTCTGCCAAGCTAGGGAGG
B4: pOsFIT probe (dsDNA)
DNA 1: TCAAGTAGTATTAGTCAATTGGTCATCACATTTCG
DNA 2: CGAAATGTGATGACCAATTGACTAATACTACTTGA

Tests used:
His-OsIRO3 [1] = target: T1, His-OsIRO3 (Oryza sativa (rice), UniProt Q10KL8 1-252); assay: EMSA
T1 sequence: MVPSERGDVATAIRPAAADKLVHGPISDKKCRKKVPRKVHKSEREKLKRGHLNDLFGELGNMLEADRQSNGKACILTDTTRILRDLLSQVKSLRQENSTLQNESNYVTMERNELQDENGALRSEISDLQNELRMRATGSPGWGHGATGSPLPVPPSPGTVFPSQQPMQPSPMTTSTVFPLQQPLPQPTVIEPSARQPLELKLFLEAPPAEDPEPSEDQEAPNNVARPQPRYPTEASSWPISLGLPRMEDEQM

His-OsIRO3 [2] = target: T1, His-OsIRO3; assay: competition
His-OsIRO3 [3] = target: T1, His-OsIRO3; assay: competition; remark: listed apart in the source

Binder | binding result (His-OsIRO3 [1]) | also measured
B1 | binds | 
B2 |  | binding result (His-OsIRO3 [2]): binds
B3 |  | binding result (His-OsIRO3 [3]): no binding
B4 | no binding | 
